Reference: US9327008B2, “Cell-permeant peptide-based inhibitor of kinases” (Purdue Research Foundation, priority 2008, dated 2016)

Key:
Format in all cases: biochemical
MEK1 = molecular target: T1, MEK1 (Homo sapiens, UniProt Q02750); test: Millipore radiometric kinase activity assay, MEK1 (h)
T1 construct: purchased Millipore (radiometric assay service)
Description: (§1) A commercial radiometric assay service (Millipore, Billerica, Mass.) was used to test the specificity and potency of peptides containing a coupled transduction domain and therapeutic domain, hereinafter “complete peptides”). In these assays, if the kinase is not inhibited by an inhibitor peptide, a positively charged substrate is phosphorylated with a radiolabeled phosphate group from an ATP.
The reaction is initiated by the addition of the MgATP. After incubation for 40 minutes at room temperature, 5 μL of this incubation mix is used to initiate a MAPK2 (m) assay.
(§2) IC50 values for inhibitor peptides were determined using Millipore's IC50Profiler Express service. The IC50 value was estimated from a 10-point curve of one-half log dilutions. For peptides tested for specificity, the concentration of the peptides that inhibited approximately 95% of MK2 activity was chosen to profile against a battery of kinases related to MK2, cell viability, or human disease from MilliporeKinaseProfiler service. In both assays, compounds were supplied in dimethylsulfoxide (DMSO). Every kinase activity measurement was conducted in duplicate.
(§3) Therapeutic inhibitor peptides were assayed for activity against human kinases related to MK2, cell viability, or human disease. The assays were performed using concentrations of therapeutic inhibitor peptides that yielded 2% to 8% of normal MK2 activity. Error is reported as the standard deviation between 2 samples, and “c” is rat AMPK whereas all other kinases used are human kinases.

PKA = molecular target: T2, PKA (Homo sapiens, UniProt P17612); test: Millipore radiometric kinase activity assay, PKA (h)
T2 construct: purchased Millipore (radiometric assay service)
Description: as §1
(§4) In a final reaction volume of 25 μL, PKA (h) (5-10 mU) is incubated with 8 mM MOPS pH 7.0, 0.2 mM EDTA, 30 μM LRRASLG [SEQ ID NO: 50] (Kemptide), 10 mM MgAcetate and [γ-^33P-ATP] (specific activity approx. 500 cpm/pmol, concentration as required). The reaction is initiated by the addition of the MgATP mix. After incubation for 40 minutes at room temperature, the reaction is stopped by the addition of 5 μL of a 3% phosphoric acid solution, 10 μL of the reaction is then spotted onto a P30 filtermat and washed three times for 5 minutes in 50 mM phosphoric acid and once in methanol prior to drying and scintillation counting.
as §2, §3

LIMK1 = molecular target: T3, LIMK1 (Homo sapiens, UniProt P53667); test: Millipore radiometric kinase activity assay, LIMK1 (h)
T3 construct: purchased Millipore (radiometric assay service)
Description: as §1
as §4, with “μL, LIMK1” for “μL, PKA”, “EDTA, 0.6 mg/mL cofilin,” for “EDTA, 30 μM LRRASLG [SEQ ID NO: 50] (Kemptide),”, “acid solution.” for “acid solution,”, “in 75” for “in 50”
as §2, §3

FGFR1 = molecular target: T4, FGFR1 (Homo sapiens, UniProt P11362); test: Millipore radiometric kinase activity assay, FGFR1 (h)
T4 construct: purchased Millipore (assay service)
Description: as §1
(§5) In a final reaction volume of 25 μL, FGFR1 (h) (5-10 mU) is incubated with 8 mM MOPS pH 7.0, 0.2 mM EDTA, 250 μM […] [SEQ ID NO: 56], 10 mM MgAcetate and [γ-^33P-ATP] (specific activity approx. 500 cpm/pmol, concentration as required). The reaction is initiated by the addition of the MgATP mix. After incubation for 40 minutes at room temperature, the reaction is stopped by the addition of 5 μL, of a 3% phosphoric acid solution. 10 μL, of the reaction is then spotted onto a P30 filtermat and washed three times for 5 minutes in 75 mM phosphoric acid and once in methanol prior to drying and scintillation counting.
as §2, §3

PhKγ2 = molecular target: T5, PhKγ2 (Homo sapiens, UniProt P15735); test: Millipore radiometric kinase activity assay, PhKγ2 (h)
T5 construct: purchased Millipore (radiometric assay service)
T5 sequence (P15735 1-406): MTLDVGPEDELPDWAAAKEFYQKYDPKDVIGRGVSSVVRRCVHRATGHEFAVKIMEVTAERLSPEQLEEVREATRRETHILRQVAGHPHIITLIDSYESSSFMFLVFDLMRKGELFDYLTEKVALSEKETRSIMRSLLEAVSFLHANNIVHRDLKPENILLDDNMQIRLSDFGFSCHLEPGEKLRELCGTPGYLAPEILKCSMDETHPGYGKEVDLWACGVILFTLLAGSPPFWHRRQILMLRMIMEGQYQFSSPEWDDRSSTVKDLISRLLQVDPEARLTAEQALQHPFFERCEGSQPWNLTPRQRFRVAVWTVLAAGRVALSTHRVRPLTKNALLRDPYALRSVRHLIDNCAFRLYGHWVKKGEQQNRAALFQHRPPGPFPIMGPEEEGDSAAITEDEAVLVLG
Description: as §1
as §5, with “25 μL, PhKγ2 (h) (5-10” for “25 μL, FGFR1 (h) (5-10”, “ID NO: 52], 10 mM” for “ID NO: 56], 10 mM”, “of 5 μL of a” for “of 5 μL, of a”, “solution. 10 μL of the” for “solution. 10 μL, of the”
as §2, §3

CK2 = molecular target: T6, CK2 (Homo sapiens, UniProt P68400); test: Millipore radiometric kinase activity assay, CK2 (h)
T6 construct: purchased Millipore (assay service)
Description: as §1
In a final reaction volume of 25 μL, CK2 (h) (5-10 mU) is incubated with 20 mM HEPES pH 7.6, 0.15 M NaCl, 0.1 mM EDTA, 5 mM DTT, 0.1% Triton X-100, 165 μM […] [SEQ ID NO: 55], 10 mM MgAcetate and [γ-^33P-ATP] (specific activity approx. 500 cpm/pmol, concentration as required). The reaction is initiated by the addition of the MgATP mix. After incubation for 40 minutes at room temperature, the reaction is stopped by the addition of 5 μL of a 3% phosphoric acid solution. 10 μL of the reaction is then spotted onto a P30 filtermat and washed three times for 5 minutes in 75 mM phosphoric acid and once in methanol prior to drying and scintillation counting.
as §2, §3

T3 sequence (P53667 whole entry): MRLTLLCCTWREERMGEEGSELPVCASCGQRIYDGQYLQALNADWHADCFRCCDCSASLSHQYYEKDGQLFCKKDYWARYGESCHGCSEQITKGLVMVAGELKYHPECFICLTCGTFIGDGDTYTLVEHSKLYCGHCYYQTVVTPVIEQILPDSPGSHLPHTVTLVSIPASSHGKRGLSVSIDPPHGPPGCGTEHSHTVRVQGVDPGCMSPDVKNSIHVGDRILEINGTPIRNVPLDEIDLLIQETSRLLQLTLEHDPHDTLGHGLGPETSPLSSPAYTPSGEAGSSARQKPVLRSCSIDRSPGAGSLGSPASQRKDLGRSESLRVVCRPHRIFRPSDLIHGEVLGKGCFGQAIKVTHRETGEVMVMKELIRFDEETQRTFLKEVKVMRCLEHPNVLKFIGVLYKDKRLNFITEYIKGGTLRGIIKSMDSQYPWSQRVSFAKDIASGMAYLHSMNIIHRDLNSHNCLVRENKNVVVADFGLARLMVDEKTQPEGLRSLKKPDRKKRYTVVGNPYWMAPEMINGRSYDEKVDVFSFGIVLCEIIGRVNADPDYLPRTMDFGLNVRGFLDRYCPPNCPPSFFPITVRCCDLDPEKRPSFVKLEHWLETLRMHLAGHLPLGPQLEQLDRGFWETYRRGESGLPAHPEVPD
T6 sequence (P68400 whole entry): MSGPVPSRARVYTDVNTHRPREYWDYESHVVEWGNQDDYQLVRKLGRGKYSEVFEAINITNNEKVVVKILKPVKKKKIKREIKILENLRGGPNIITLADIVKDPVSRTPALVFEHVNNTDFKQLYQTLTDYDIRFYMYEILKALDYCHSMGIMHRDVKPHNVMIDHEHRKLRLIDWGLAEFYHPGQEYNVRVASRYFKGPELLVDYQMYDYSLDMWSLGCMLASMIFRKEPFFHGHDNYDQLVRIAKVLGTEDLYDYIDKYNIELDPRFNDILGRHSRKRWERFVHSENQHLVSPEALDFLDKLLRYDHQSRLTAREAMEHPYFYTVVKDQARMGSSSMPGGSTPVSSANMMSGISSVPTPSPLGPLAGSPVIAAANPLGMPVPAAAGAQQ
T6 sequence (P67870 whole entry partner): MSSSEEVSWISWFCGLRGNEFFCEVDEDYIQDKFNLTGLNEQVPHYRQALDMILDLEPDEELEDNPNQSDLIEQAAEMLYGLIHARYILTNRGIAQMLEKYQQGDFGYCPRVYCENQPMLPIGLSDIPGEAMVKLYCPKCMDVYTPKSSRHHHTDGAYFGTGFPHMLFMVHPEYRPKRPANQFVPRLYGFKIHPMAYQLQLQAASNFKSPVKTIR
T4 sequence (P11362 22-822): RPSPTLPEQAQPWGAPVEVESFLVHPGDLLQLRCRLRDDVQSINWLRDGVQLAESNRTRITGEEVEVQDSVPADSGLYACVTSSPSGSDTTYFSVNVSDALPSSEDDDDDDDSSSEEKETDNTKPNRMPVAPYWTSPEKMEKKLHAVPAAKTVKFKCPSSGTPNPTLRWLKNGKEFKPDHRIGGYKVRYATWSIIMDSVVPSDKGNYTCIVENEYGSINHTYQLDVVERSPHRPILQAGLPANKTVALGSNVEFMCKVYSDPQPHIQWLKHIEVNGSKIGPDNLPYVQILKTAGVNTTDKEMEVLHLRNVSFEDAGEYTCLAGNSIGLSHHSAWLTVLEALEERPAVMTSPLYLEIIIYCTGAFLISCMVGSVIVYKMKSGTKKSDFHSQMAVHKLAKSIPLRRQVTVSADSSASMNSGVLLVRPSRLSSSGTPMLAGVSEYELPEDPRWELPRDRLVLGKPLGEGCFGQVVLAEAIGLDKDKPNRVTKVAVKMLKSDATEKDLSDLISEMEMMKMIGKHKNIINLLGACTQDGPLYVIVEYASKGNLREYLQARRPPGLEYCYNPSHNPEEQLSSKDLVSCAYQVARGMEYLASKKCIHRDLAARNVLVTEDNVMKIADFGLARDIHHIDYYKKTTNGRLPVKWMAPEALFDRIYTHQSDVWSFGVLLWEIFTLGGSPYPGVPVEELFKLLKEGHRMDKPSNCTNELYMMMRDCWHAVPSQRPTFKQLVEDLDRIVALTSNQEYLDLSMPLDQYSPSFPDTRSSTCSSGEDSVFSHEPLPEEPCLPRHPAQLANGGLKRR

Sequence	MEK1 Kinase Activity (%) (+SD %) (MEK1; peptide 30 μM)	MEK1 Kinase Activity (%) (+SD %) (MEK1; peptide 100 μM)	PKA Kinase Activity (%) (+SD %) (PKA; peptide 30 μM)	PKA Kinase Activity (%) (+SD %) (PKA; peptide 100 μM)	LIMK1 Kinase Activity (%) (+SD %) (LIMK1; peptide 30 μM)	LIMK1 Kinase Activity (%) (+SD %) (LIMK1; peptide 100 μM)	FGFR1 Kinase Activity (%) (+SD %) (FGFR1; peptide 30 μM)	FGFR1 Kinase Activity (%) (+SD %) (FGFR1; peptide 100 μM)	PhKγ2 Kinase Activity (%) (+SD %) (PhKγ2; peptide 30 μM)	PhKγ2 Kinase Activity (%) (+SD %) (PhKγ2; peptide 100 μM)	CK2 Kinase Activity (%) (+SD %) (CK2; peptide 30 μM)	CK2 Kinase Activity (%) (+SD %) (CK2; peptide 100 μM)
WLRRIKAWLRRIKALNRQLGVAA	14 (2) %	68 (2) %	80 (1) %	76 (8) %	89 (3) %	92 (2) %	27 (1) %	22 (1) %	15 (0) %	20 (0) %	114 (4) %	80 (14) %
KAFAKLAARLYRKALARQLGVAA		66 (0) %		103 (1) %		93 (3) %		35 (1) %		27 (3) %		79 (12) %
